Results taken from PMC7644594.

Molecular target: EPHA2 tagged with a fluorescent protein for FRET (EPHA2-mClover3, EPHA2-mRuby3) (human) (UniProt P29317)
Assay: FRET or BRET

- N-FRET: 0.347
Substance: EPHA2 tagged with a fluorescent protein for FRET (EPHA2-mClover3, EPHA2-mRuby3) (from UniProt P29317 24-976) (receptor)
